Test [1] has as its target MDA-modified low density lipoprotein. The test is described as follows: ELISA. For orientation: An ELISA detects its analyte on a solid surface through an enzyme-linked reagent.
In test [2] the target is complement factor H (purified CFH) (UniProt P08603). The test is described as follows: flow cytometry on cells.
Test [3] deals with MAA-modified bovine serum albumin (bovine) (UniProt P02769). The test is described as follows: ELISA.

pKd: −log10 of the molar value. Bounds are passed on as bounds.

In the case of “CFH variant H402 (from UniProt P08603 19-1231) (natural protein)”, the reduction of binding against plasma homozygous for the Y402 allele in test [1] was 52%.

Take “MAA-modified bovine serum albumin (from UniProt P02769 25-607)”: in test [2], the percent competition of the binding of CFH to apoptotic blebs is greater than 60%.

By pKd is commonly meant −log10 of the Kd, conventionally taken in molar units. A higher pKd goes with a small Kd. Consider “complement factor H (purified CFH) (from UniProt P08603 19-1231) (natural protein)”, for which the pKd in test [3] is 7.19.

The values above are taken from publication PMC4826616.
